What was measured:
Assay in all cases: purified protein
Settings in all cases: 50 mM Hepes pH 8.0
[1] = substrate: CC(=O)N[C@@H](CC(C)C)C(=O)O
[2] = substrate: CC(=O)N[C@@H](Cc1ccc(O)cc1)C(=O)O
[3] = substrate: CC(=O)N[C@@H](Cc1ccccc1)C(=O)O
[4] = substrate: CC(C)C[C@H](NC(=O)[C@@H](N)CC(=O)O)C(=O)O
[5] = substrate: CC(C)C[C@H](NC(=O)[C@H](C)N)C(=O)O
[6] = substrate: CC(C)C[C@H](NC=O)C(=O)O
[7] = substrate: CC(C)[C@H](NC=O)C(=O)O
[8] = substrate: CC[C@H](C)[C@H](NC(C)=O)C(=O)O
[9] = substrate: CC[C@H](C)[C@H](NC=O)C(=O)O
[10] = substrate: CSCC[C@H](NC=O)C(=O)O
[11] = substrate: C[C@H](N)C(=O)N[C@@H](Cc1ccccc1)C(=O)O
[12] = substrate: O=CN[C@@H](Cc1ccc(O)cc1)C(=O)O
[13] = substrate: O=CN[C@@H](Cc1ccccc1)C(=O)O

B1: Cc0300 (Caulobacter vibrioides CB15) (protein)
chain: QATFVQAGRLLADPATGKVEIAKTLVLENGKVTRILDGYVAEPGGKVVDLKDSFVLPGLIDSHVHLTGQQNPNGRLQAVTQSPSDSAMVGAGFARKTLMAGFTTVANLGANSQAIFALREGVKRGDVAGPRILASGSSISVHGGHGDINGYSEDVMHALRPESVCSGADDCRRAVREQIWLGADLIKITATGGVLSNTAAGLAKQFSDAELAAIVESAHSMGRKVTAHAHGGDGINAFLKAGGDSIEHGTYLDNEGIALMKKSGAYLVPTLMAGDFVYRIASGPNNYFTPAQTAKALEAGPKMLDMVRRAHADGVKVAFGTDSGVSAHGDNAGEFALLVKAGMTPLEAIQTATVNAADHFSLSNEIGSLTPGKAADLIAVKGDPLKDVTELQRVTSVIKGGVVYK
Question: For B1, which Km [1] is on record?
Answer: 150 ± 30 µM

Question: What about the kcat [1] of the same protein?
Answer: 2.5 ± 0.1 s⁻¹

Question: What about the kcat/Km [1] of the same protein?
Answer: 16000 ± 3000 M⁻¹ s⁻¹

Question: And the Km [2]?
Answer: 170 ± 20 µM

Question: And the kcat [2]?
Answer: 4.6 ± 0.2 s⁻¹

Question: And the kcat/Km [2]?
Answer: 27000 ± 3000 M⁻¹ s⁻¹

Question: And the Km [3]?
Answer: 310 ± 30 µM

Question: What about the kcat [3] of the same protein?
Answer: 5.3 ± 0.2 s⁻¹

Question: What about the kcat/Km [3] of the same protein?
Answer: 17000 ± 2000 M⁻¹ s⁻¹

Question: And the Km [4]?
Answer: 220 ± 40 µM

Question: And the kcat [4]?
Answer: 29 ± 1 s⁻¹

Question: And the kcat/Km [4]?
Answer: 130000 ± 20000 M⁻¹ s⁻¹

Question: And the Km [5]?
Answer: 350 ± 40 µM

Question: And the kcat [5]?
Answer: 37 ± 2 s⁻¹

Question: What about the kcat/Km [5] of the same protein?
Answer: 110000 ± 10000 M⁻¹ s⁻¹

Question: What about the Km [6] of the same protein?
Answer: 130 ± 10 µM

Question: And the kcat [6]?
Answer: 39 ± 2 s⁻¹

Question: What about the kcat/Km [6] of the same protein?
Answer: 300000 ± 30000 M⁻¹ s⁻¹

Question: What about the Km [7] of the same protein?
Answer: 80 ± 10 µM

Question: And the kcat [7]?
Answer: 18 ± 1 s⁻¹

Question: What about the kcat/Km [7] of the same protein?
Answer: 220000 ± 30000 M⁻¹ s⁻¹

Question: What about the Km [8] of the same protein?
Answer: 140 ± 20 µM

Question: What about the kcat [8] of the same protein?
Answer: 2.6 ± 0.1 s⁻¹

Question: And the kcat/Km [8]?
Answer: 19000 ± 2000 M⁻¹ s⁻¹

Question: What about the Km [9] of the same protein?
Answer: 70 ± 10 µM

Question: And the kcat [9]?
Answer: 20 ± 1 s⁻¹

Question: What about the kcat/Km [9] of the same protein?
Answer: 290000 ± 40000 M⁻¹ s⁻¹

Question: And the Km [10]?
Answer: 410 ± 30 µM

Question: What about the kcat [10] of the same protein?
Answer: 12 ± 1 s⁻¹

Question: And the kcat/Km [10]?
Answer: 29000 ± 2000 M⁻¹ s⁻¹

Question: What about the Km [11] of the same protein?
Answer: 660 ± 50 µM

Question: What about the kcat [11] of the same protein?
Answer: 19 ± 1 s⁻¹

Question: And the kcat/Km [11]?
Answer: 29000 ± 3000 M⁻¹ s⁻¹

Question: And the Km [12]?
Answer: 90 ± 10 µM

Question: What about the kcat [12] of the same protein?
Answer: 33 ± 1 s⁻¹

Question: What about the kcat/Km [12] of the same protein?
Answer: 390000 ± 40000 M⁻¹ s⁻¹

Question: And the Km [13]?
Answer: 260 ± 30 µM

Question: What about the kcat [13] of the same protein?
Answer: 52 ± 2 s⁻¹

Question: What about the kcat/Km [13] of the same protein?
Answer: 200000 ± 20000 M⁻¹ s⁻¹

B2: Sgx9355e (Alteromonas macleodii) (protein)
chain: MSLDVDSKTLIHAGKLIDGKSDQVQSRISIVIDGNIISDIKKGFISSNDFEDYIDLRDHTVLPGLMDMHVHFGQEYQSKAQAPIKVEREMQAILATQHAYVTFKSGFTTVRQVGDSGLVAISLRDAINSGKLAGPRIFAAGKTIATTGGHADPTNGKAVDDYDYPVPEQGVVNGPYEVYAAVRQRYKDGADGIKITVTGGVLSVAKSGQNPQFTQEEVDAVVSAAKDYGMWVAVHAHGAEGMKRAIKAGVDSIEHGTFMDLEAMDLMIENGTYYVPTISAGEFVAEKSKIDNFFPEIVRPKAASVGPQISDTFRKAYEKGVKIAFGTDAGVQKHGTNWKEFVYMVENGMPAMKAIQSATMETAKLLRIEDKLGSIESGKLADLIAVKGNPIEDISVLENVDVVIKDGLLYE
Question: What does the source list for B2?
Answer: Km [1]: 110 ± 10 µM; kcat [1]: 0.032 ± 0.01 s⁻¹; Km [5]: 250 ± 30 µM; kcat [5]: 0.34 ± 0.01 s⁻¹; kcat/Km [5]: 1300 ± 200 M⁻¹ s⁻¹; Km [6]: 260 ± 40 µM; kcat [6]: 0.072 ± 0.003 s⁻¹; kcat/Km [6]: 280 ± 40 M⁻¹ s⁻¹; Km [11]: 70 ± 10 µM; kcat [11]: 0.41 ± 0.01 s⁻¹; kcat/Km [11]: 5800 ± 600 M⁻¹ s⁻¹

Source: paper PMC2748308
